Measurements from patent EP2351583A1.

Target: AAB1/B2Fc
Test: SPR (BIAcore), Fab immobilized on Pioneer F1 chip, AAB1/B2Fc as analyte

B1: Fab fragment F200 (Fab, V domains shown)
VH: QVQLKESGPGLVAPSQSLSITCTISGFSLTDYGVHWVRQPPGKGLEWLVVIWSDGSSTYNSALKSRMTIRKDNSKSQVFLIMNSLQTDDSAMYYCARHGTYYGMTTTGDALDYWGQGTSVTVSS
VL: QIVLTQSPAIMSASLGERVTMTCTASSSVSSNYLHWYQQKPGSAPNLWIYSTSNLASGVPARFSGSGSGTSYSLTISSMEAEDAATYYCHQYLRSPPTFGGGTKLEIKR
Question: With B1 as the binder, how does the Kd read?
Answer: Its Kd is 0.332 nM.
